Usually Kd stands for the concentration at which binding is half-saturated. Higher therefore signals weaker binding. The koff is a measure of how fast the partners let go of each other. The low end stands for slow dissociation, the high end for fast dissociation. In general, kon refers to the second-order rate constant of association. A lower kon goes with slow association. What is called EC50 is the concentration at which the effect is half-maximal. High values mean weaker potency, low ones greater potency.

Residue numbers refer to the chain shown, from its start.

One experiment concerns the target T1, hGUCY2C ECD-His (human, UniProt P25092 24-430).
T1 construct: also called human GUCY2C protein
Nature of the experiment: SPR Biacore, antibody captured. From the text: To test the affinity of the GUCY2C monoclonal antibodies of the present disclosure for GUCY2C, in this test example, the instruments Biacore 8K and Biacore T200 were used to detect the ability of the antibodies to bind to hGUCY2C-ECD-His (SEQ ID NO: 3). The specific method is as follows: The antibody was affinity-captured using a Protein A biosensor chip conjugated with an anti-human antibody, then a solution containing GUCY2C Protein flowed on the surface of the chip, and reaction signals were detected in real time with an instrument to obtain association and dissociation curves. After dissociation was completed for each cycle, the biosensor chip was washed with 10 mM glycine-hydrochloric acid (pH 1.5) for regeneration. Data fitting was performed using a 1:1 model.
(Surface plasmon resonance follows binding to a sensor surface in real time, without labels.)

For another experiment, the target named is hCTLA4 (human, UniProt P16410 36-161). The experiment can be described thus: ELISA. In general terms: An ELISA detects its analyte on a solid surface through an enzyme-linked reagent.
A further experiment concerns the target hPDL1 (human, UniProt Q9NZQ7 19-238). Nature of the experiment: ELISA.

hCTLA4, sequence (P16410 36-161 limits assumed): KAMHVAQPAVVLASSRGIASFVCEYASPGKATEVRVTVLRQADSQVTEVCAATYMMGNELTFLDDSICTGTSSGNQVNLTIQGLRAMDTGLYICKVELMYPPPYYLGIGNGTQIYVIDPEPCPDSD
hPDL1, sequence (Q9NZQ7 19-238 limits assumed): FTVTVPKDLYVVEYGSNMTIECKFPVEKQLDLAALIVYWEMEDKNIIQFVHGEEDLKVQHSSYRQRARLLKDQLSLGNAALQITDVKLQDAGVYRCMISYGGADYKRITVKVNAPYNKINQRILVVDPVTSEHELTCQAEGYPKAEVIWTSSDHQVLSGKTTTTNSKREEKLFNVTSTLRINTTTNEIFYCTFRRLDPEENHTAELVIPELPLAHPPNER

B1: P3-E4 CHI (antibody, human IgG1, kappa, V domains shown)
VH: QVQLQQPGAELVMPGAAVKLSCKASGYTFINYWMHWLKQRPGQGLEWIGEIDPSDGYTDYNQKFKGKATLTVDKSSSTAYMQLSSLTSEDSAVYYCAISLRGPITFGPFPYWGQGTLVTVSS
VL: DIVLTQSPASLAVSLGQRATISCRASESVSIHGTHLMHWYQQKPGQPPKLLIYAASNLESGVPARFSGSGSETDFTLNIHPVAEEDAATYFCQHSIEDPRTFGGGTKLEIKR
notes: chimeric
With B1, in the experiment with hGUCY2C ECD-His, the affinity, expressed as Kd, was 12.9 nM; the koff is 0.000228 s⁻¹; the kon was 17700 M⁻¹ s⁻¹.

B2: PL-4 (bispecific antibody)
chain 1: not shown
chain 2: DIVLTQSPASLAVSPGQRATITCRASESVSIHGTHLMHWYQQKPGQPPKLLIYAASKLESGVPARFSGSGSGTDFTLTINPVEAEDTANYYCQQSFEDPLTFGQGTKLEIKGGGGSGIPPKIECLPIDISIDEGKVLTVASCFTGEPTPEVTWSTGGRKIHSQEQGRFHIENTDDSTTLTIKDVQKQDGGLYTLTLRNEFGSDSATVNIHIRSI
chain 3: not shown
chain 4: not shown
Regarding B2, the EC50 with hCTLA4 was found to be 6.5 nM; in the experiment with hPDL1, 0.7 nM.

B3: PL-15 (bispecific antibody)
chain 1: not shown
chain 2: B2 chain 2 with G112R, G113T, G114V, G115A, V136C, C142A
chain 3: not shown
chain 4: not shown
Regarding B3, the EC50 was 3.2 nM with hCTLA4 and 1.4 nM in the experiment with hPDL1.

B4: PL-11 (bispecific antibody)
chain 1: not shown
chain 2: B2 chain 2 with G112R, G113T, G114V, G115A, C142A
chain 3: not shown
chain 4: not shown
B4: the results for the EC50 with hCTLA4 and with hPDL1 were 5.6 nM and 0.6 nM, respectively.

B5: PL-7 (bispecific antibody)
chain 1: not shown
chain 2: B2 chain 2
chain 3: not shown
chain 4: not shown
On to B5, for which the values for the EC50 with hCTLA4 and with hPDL1 were 7.3 nM and 0.5 nM, respectively.

B6: PL-18 (bispecific antibody)
chain 1: not shown
chain 2: B2 chain 2 with G112R, G113T, G114V, G115A, V136C, C142A
chain 3: not shown
chain 4: not shown
Consider B6, for which the results for the EC50 in the experiment with hCTLA4 and in the experiment with hPDL1 were 6.7 nM and 1.6 nM, respectively.

B7: PL-13 (bispecific antibody)
chain 1: not shown
chain 2: B2 chain 2 with G112R, G113T, G114V, G115A
chain 3: not shown
chain 4: not shown
Turning to B7, the concentration for a half-maximal effect (EC50) amounted to 4.4 nM in the experiment with hCTLA4 and 0.5 nM with hPDL1.

B8: PL-9 (bispecific antibody)
chain 1: not shown
chain 2: B2 chain 2 with V136C, C142A
chain 3: not shown
chain 4: not shown
With B8, the EC50 in the experiment with hCTLA4 worked out at 5.5 nM; in the experiment with hPDL1, 0.6 nM.

B9: PL-17 (bispecific antibody)
chain 1: not shown
chain 2: B2 chain 2 with G112R, G113T, G114V, G115A, C142A
chain 3: not shown
chain 4: not shown
Consider B9, for which the EC50 stood at 6.2 nM with hCTLA4 and 1.4 nM with hPDL1.

B10: PL-19 (bispecific antibody)
chain 1: not shown
chain 2: B2 chain 2 with G112R, G113T, G114V, G115A
chain 3: not shown
chain 4: not shown
As for B10, the EC50 with hCTLA4 is 6.5 nM; with hPDL1 it was 1.6 nM.

B11: PL-12 (bispecific antibody)
chain 1: not shown
chain 2: B2 chain 2 with G112R, G113T, G114V, G115A, V136C, C142A
chain 3: not shown
chain 4: not shown
For B11, the EC50 was found to be 8 nM in the experiment with hCTLA4 and 0.5 nM in the experiment with hPDL1.

B12: PL-5 (bispecific antibody)
chain 1: not shown
chain 2: B2 chain 2 with C142A
chain 3: not shown
chain 4: not shown
Take B12: the EC50 came to 6.7 nM in the experiment with hCTLA4 and 0.7 nM with hPDL1.

B13: PL-10 (bispecific antibody)
chain 1: not shown
chain 2: B2 chain 2
chain 3: not shown
chain 4: not shown
On to B13, for which the 50% effective concentration (EC50) in the experiment with hCTLA4 worked out at 6.9 nM; in the experiment with hPDL1, 0.6 nM.

B14: PL-14 (bispecific antibody)
chain 1: not shown
chain 2: B2 chain 2 with G112R, G113T, G114V, G115A, C142A
chain 3: not shown
chain 4: not shown
Take B14: the EC50 is 6 nM in the experiment with hCTLA4 and 1.3 nM with hPDL1.

The record behind these values is patent publication US20260028421A1 (JIANGSU HENGRUI PHARMACEUTICALS, published 2026).
